Measured values taken from IntAct's records for PubMed 24583011.

How the values were obtained:
sv2c_rat Sv2c [1] = molecular target: T1, sv2c_rat Sv2c (UniProt Q9Z2I6)
T1 sequence: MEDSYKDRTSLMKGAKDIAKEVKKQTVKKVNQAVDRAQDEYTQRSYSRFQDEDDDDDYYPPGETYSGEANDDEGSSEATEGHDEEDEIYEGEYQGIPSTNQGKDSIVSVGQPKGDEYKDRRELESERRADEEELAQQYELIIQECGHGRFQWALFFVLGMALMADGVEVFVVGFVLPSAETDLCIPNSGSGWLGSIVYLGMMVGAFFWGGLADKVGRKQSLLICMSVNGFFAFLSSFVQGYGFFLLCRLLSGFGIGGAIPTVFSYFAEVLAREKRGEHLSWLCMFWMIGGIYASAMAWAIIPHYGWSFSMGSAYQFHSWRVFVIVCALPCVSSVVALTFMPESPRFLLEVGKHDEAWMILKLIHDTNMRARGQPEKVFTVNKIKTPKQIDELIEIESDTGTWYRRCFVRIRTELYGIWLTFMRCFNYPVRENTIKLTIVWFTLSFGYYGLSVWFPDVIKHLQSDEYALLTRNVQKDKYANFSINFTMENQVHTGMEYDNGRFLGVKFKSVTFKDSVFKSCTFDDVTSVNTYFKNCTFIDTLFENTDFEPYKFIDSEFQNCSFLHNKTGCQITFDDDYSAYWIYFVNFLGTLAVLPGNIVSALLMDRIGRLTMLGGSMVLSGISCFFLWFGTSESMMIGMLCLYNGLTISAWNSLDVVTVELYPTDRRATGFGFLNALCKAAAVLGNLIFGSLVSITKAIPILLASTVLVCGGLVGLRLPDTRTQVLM

sv2c_rat Sv2c [2] = molecular target: T1, sv2c_rat Sv2c; remark: listed apart in the source
sv2c_rat Sv2c [3] = molecular target: T1, sv2c_rat Sv2c; remark: listed apart in the source
sv2c_rat Sv2c [4] = molecular target: T1, sv2c_rat Sv2c; remark: listed apart in the source
sv2c_rat Sv2c [5] = molecular target: T1, sv2c_rat Sv2c; remark: listed apart in the source
sv2c_rat Sv2c [6] = molecular target: T1, sv2c_rat Sv2c; remark: listed apart in the source
sv2c_rat Sv2c [7] = molecular target: T1, sv2c_rat Sv2c; remark: listed apart in the source
sv2c_rat Sv2c [8] = molecular target: T1, sv2c_rat Sv2c; remark: listed apart in the source
sv2c_rat Sv2c [9] = molecular target: T1, sv2c_rat Sv2c; remark: listed apart in the source
sv2c_rat Sv2c [10] = molecular target: T1, sv2c_rat Sv2c; remark: listed apart in the source

Botulinum neurotoxin type A (Clostridium botulinum) (from UniProt P0DPI0) R1131E
effect of a mutation on the interaction (sv2c_rat Sv2c [1]): decreasing interaction

Botulinum neurotoxin type A (Clostridium botulinum) (from UniProt P0DPI0) R1156M
effect of a mutation on the interaction (sv2c_rat Sv2c [2]): decreasing interaction

Botulinum neurotoxin type A (Clostridium botulinum) (from UniProt P0DPI0) T1063P
effect of a mutation on the interaction (sv2c_rat Sv2c [3]): decreasing interaction

Botulinum neurotoxin type A (Clostridium botulinum) (from UniProt P0DPI0) G1292R
effect of a mutation on the interaction (sv2c_rat Sv2c [4]): decreasing interaction

Botulinum neurotoxin type A (Clostridium botulinum) (from UniProt P0DPI0) K1163E
effect of a mutation on the interaction (sv2c_rat Sv2c [5]): decreasing interaction

Botulinum neurotoxin type A (Clostridium botulinum) (from UniProt P0DPI0) N1188A
effect of a mutation on the interaction (sv2c_rat Sv2c [6]): decreasing interaction

Botulinum neurotoxin type A (Clostridium botulinum) (from UniProt P0DPI0) V1287E
effect of a mutation on the interaction (sv2c_rat Sv2c [7]): decreasing interaction

Botulinum neurotoxin type A (Clostridium botulinum) (from UniProt P0DPI0) D1108R
effect of a mutation on the interaction (sv2c_rat Sv2c [8]): decreasing interaction

Botulinum neurotoxin type A (Clostridium botulinum) (from UniProt P0DPI0) N905Y
effect of a mutation on the interaction (sv2c_rat Sv2c [9]): decreasing interaction

Botulinum neurotoxin type A (Clostridium botulinum) (from UniProt P0DPI0) H1064G
effect of a mutation on the interaction (sv2c_rat Sv2c [10]): decreasing interaction
